Data set [1] deals with Kuenenia stuttgartiensis hydroxylamine oxidase (Kuenenia stuttgartiensis) (UniProt Q1PX48).
Substrate in the data set “purified protein”: NO
As to the kind of experiment: purified protein. It is filed as biochemical, Candidatus Kuenenia stuttgartensis. Particulars: electron acceptor 50 μM bovine cytochrome c, 20 mM potassium phosphate pH 7.0, 37 °C, kcat per KsHAO trimer.

With “Kustc0563nt (Kustc0563 after cleavage of the N-terminal His-tag) (natural protein)”, in data set [1], the Vmax NH2OH of hydroxylamine oxidation by KsHAO with 50 μM Kustc0563 as the electron acceptor (reduction of the acceptor followed at 550 nm) was 15.8 µmol/min/mg and the kcat NH2OH (KsHAO trimer) of hydroxylamine oxidation by KsHAO with 50 μM Kustc0563 as the electron acceptor was found to be 48.4 s^–1.
For the molecule “bovine (Bos taurus) mitochondrial cytochrome c (from UniProt P62894 1-105) (natural protein)”, in data set [1], the Vmax NH2OH of hydroxylamine oxidation by KsHAO with 50 μM BtCytc as the electron acceptor (reduction of the acceptor followed at 550 nm) was determined as 2.7 µmol/min/mg and the kcat NH2OH (KsHAO trimer) of hydroxylamine oxidation by KsHAO with 50 μM BtCytc as the electron acceptor was determined as 8.4 s^–1.

B1: KsHAO (Candidatus Kuenenia stuttgartensis) (protein)
chain: CAMENGVAMAEGPTFQDVASQVFGQPVGPDNDGTLYIFGLTAKYTEPEYVDGRGPYKSFLKMLPSIRWYDPEHYWTNGSQTEGVFKNEECVLCHTVQTPTIVNDWKQSSHGSKDIRRGIGIKKDGKPVEDLVGCADCHGNNHQKLEMPTYKLCNDCHPKETAEHRAGGLGSHTHAYTVNVLEFSWHVGKPAEEVTGCAHCHAIAENRCSGCHTRHKFDPAEARKPTACRVCHMGIDHDEWAMYNTSIHGALYEAESARMDWGKKLKKGNYRVPTCAYCHMQNGDHNPQRFGTIYSDMGMFQVDRGAPKHKAKRDSWIKLCQDCHSPRFAADKLKEMDAGVNLSFTKWREAAAVIVGCYLDGVVDPMPEGSAPDWYGHYTFSLLPGGDPRFYATSNLERLGLEMICYLTGNVYKAYAHMSMYNQTYGNGSAFEQDRKLVEIKTEAAKLRRFAAIEKKIGLEHKSADFWKHGEYLDLLPGWKRKPGDVDVEWFKRTDIPHRANADAGVEIHH
notes: octaheme c-type cytochrome, trimeric; preparation not described
For the molecule B1, in the data set “purified protein”, the Km was 5.8 ± 0.7 µM, the Vmax was determined as 2.7 µmol/min/mg, the kcat was 8.4 s⁻¹ and the kcat/Km worked out at 1.4e+06 M⁻¹ s⁻¹.
